This note sets out measurements from the supplement of paper PMC9170038.

For this data set, the system named is MS2 coat protein. The experiment in a line: apparent KD of MS2 coat protein; designed switch direction (-1 OFF switch, 1 ON switch): 1; higher = weaker reporter binding. An outline of the steps:
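The apparent KD reported per design is the median over clusters of curve fits to normalised cluster fluorescence. The RNA switches were transcribed on Illumina chips by stalled E. coli RNA polymerase. SNAP-549-labelled MS2 coat protein was titrated from 0.7 or 1.5 nM, doubling up to 3 µM, in Tris-HCl pH 7.5 buffer containing KCl, MgCl2, BSA, DTT, tRNA and Tween-20, with no input, 200 uM small-molecule ligand, or an oligonucleotide input.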

[1] abbreviates: input ligand: microRNA oligo, concentration not stated.

As to “GUGGUCAGACAUGAGGAUCACCCAUGUGGAAUAAAUAAGGGUUAGGAUAUCUAAUAUAGGAUAUAAGAGAAGGGAUGGUUGGUG (Eterna round: R96, puzzle: Same State NG 3)”, the “apparent KD of MS2 coat protein” value is, setting by setting: (input ligand: FMN 200 uM) 118 nM; under setting [1], 64.8 nM; (input ligand: none) 96.2 nM.
Turning to “GUGGUCUGACAUGAGGAUCACCCAUGUGGAAUAAAUACGGGUUAGGAUAUCUUGAGGAUCACCCAAGAGAAGGGAUGGACCGUU (Eterna round: R96, puzzle: Same State NG 3)”, the “apparent KD of MS2 coat protein” value amounted to 36.3 nM (input ligand: FMN 200 uM), 30.9 nM under setting [1] and 47.5 nM (input ligand: none).
In the case of “GUGGUCUGACAUGAGGAUCACCCAUGUGGAAUAAAUACGGGUUAGGAUAUCUUGAGGAUCACCCAAGAGAAGGGAUGGAUGGUC (Eterna round: R96, puzzle: Same State NG 3)”, the “apparent KD of MS2 coat protein” value under setting [1] worked out at 71 nM.
For “GUGGUGCUUCUAGGAUAUUCAGCGGCCCUCACAUGAGGAUCACCCAUGUUCACAAGAGAAACCAUGAAGAAGGAGAACUACAAU [Eternabot solution 42] (Eterna round: R96, puzzle: Same State NG 2)”, the “apparent KD of MS2 coat protein” value came out at 45.6 nM (input ligand: FMN 200 uM), 39.9 nM under setting [1] and 55.8 nM (input ligand: none).
As for “GUGGUGGGUUGAGGAUAUUGGUUGUUGUUGUCCCACAUGAGGAUCACCCAUGUGGGUUGUGGUUUUGAGAAGGUUGGUUGCUGG [salish99_SSNG2_r04_051] (Eterna round: R96, puzzle: Same State NG 2)”, under setting [1], the “apparent KD of MS2 coat protein” value worked out at 14.4 nM.
With “GUGGUGUAGAUACAGGAUAUGUUGCUCGUAACAUGAGGAUCACCCAUGUAUCUAUGAGAUUAAAUGCAGAAGGGUGCACACCACG [Maerveen] (Eterna round: R96, puzzle: Same State 2)”, the “apparent KD of MS2 coat protein” value worked out at 22 nM (input ligand: FMN 200 uM), 220 nM under setting [1] and 358 nM (input ligand: none).
The like results for “GUGGUUCUCGUAGGAUAUGUAGGAUAUCCCUACAUGAGGAUCACCCAUGUUCGCAUGGGAGAAGGACAGAAGGACGAUCGCUAA [pwkr ssNG2 2FMN + 1F5.16] (Eterna round: R96, puzzle: Same State NG 2)” were, in that order, 20.9 nM, 11.1 nM and 53.5 nM.
For “GUUACAUGAGGAUCACCCAUGUAUGUGUGGGAGUAAGUGUCUUAGGAUAUCUAGAAUUUAAUUUAAGAGAAGGAAGAUUGUUGU [JMF's solution 49] (Eterna round: R96, puzzle: Same State NG 3)”, the “apparent KD of MS2 coat protein” value is 104 nM (input ligand: FMN 200 uM), 61 nM under setting [1] and 83 nM (input ligand: none).
In the same order, the values of “GUUACAUGAGGAUCACCCAUGUAUGUGUGGGAGUAAGUGUCUUAGGAUAUCUAGCAUUUAAUUUAAGAGAAGGAAGAUUGUUGU [JMF's solution 51] (Eterna round: R96, puzzle: Same State NG 3)” are 79.7 nM, 59.9 nM and 84.1 nM.
The like results for “GUUACAUGAGGAUCACCCAUGUAUGUGUGGGAGUAAGUGUCUUAGGAUAUCUAUCAGUUAAUUUAAGAGAAGGAAGAUUGUUGU [JMF's solution 90] (Eterna round: R96, puzzle: Same State NG 3)” were, in that order, 126 nM, 111 nM and 115 nM.
In the same order, the values of “GUUACAUGAGGAUCACCCAUGUAUGUGUGGGAGUAAGUGUCUUAGGAUAUCUAUCAUUUUAUUUAAGAGAAGGAAGAUUGUUGU [JMF's solution 93] (Eterna round: R96, puzzle: Same State NG 3)” are 121 nM, 77.4 nM and 111 nM.
With “GUUACAUGAGGAUCACCCAUGUAUGUGUGGGAGUAAGUGUCUUAGGAUAUCUAUGAAUUAAUUUAAGAGAAGGAAGAUUGUUGU [JMF's solution 73] (Eterna round: R96, puzzle: Same State NG 3)”, the “apparent KD of MS2 coat protein” value is 107 nM (input ligand: FMN 200 uM), 73.3 nM under setting [1] and 112 nM (input ligand: none).
Turning to “GUUACAUGAGGAUCACCCAUGUAUGUGUGGGAGUAAGUGUCUUAGGAUAUCUAUGAUGUAAUUUAAGAGAAGGAAGAUUGUUGU [JMF's solution 76] (Eterna round: R96, puzzle: Same State NG 3)”, the “apparent KD of MS2 coat protein” value (input ligand: FMN 200 uM) came out at 135 nM, the “apparent KD of MS2 coat protein” value under setting [1] turned out to be 128 nM and the “apparent KD of MS2 coat protein” value (input ligand: none) stood at 150 nM.
Regarding “GUUACAUGAGGAUCACCCAUGUAUGUGUGGGAGUAAGUGUCUUAGGAUAUCUAUGAUUUAAUUUGAGAGAAGGAAGAUUGUUGU [JMF's solution 87] (Eterna round: R96, puzzle: Same State NG 3)”, the “apparent KD of MS2 coat protein” value was found to be 88.8 nM (input ligand: FMN 200 uM), 76.4 nM under setting [1] and 102 nM (input ligand: none).
In the same order, the values of “GUUACAUGAGGAUCACCCAUGUAUGUGUGGGAGUAAGUGUCUUAGGAUAUCUAUGAUUUGAUUUAAGAGAAGGAAGAUUGUUGU [JMF's solution 78] (Eterna round: R96, puzzle: Same State NG 3)” are 122 nM, 80.9 nM and 110 nM.
The like results for “GUUACAUGAGGAUCACCCAUGUAUGUGUGGGAGUAAGUGUCUUAGGAUAUCUAUUAAUUAAAUUAAGAGAAGGAAGAUUGUUGU [JMF's solution 14] (Eterna round: R96, puzzle: Same State NG 3)” were, in that order, 127 nM, 83.7 nM and 112 nM.
Consider “GUUACAUGAGGAUCACCCAUGUAUGUGUGGGAGUAAGUGUCUUAGGAUAUCUGUAAUUUAAUUUAAGAGAAGGAAGAUUGUUGU [JMF's solution 31] (Eterna round: R96, puzzle: Same State NG 3)”, for which the “apparent KD of MS2 coat protein” value came to 128 nM (input ligand: FMN 200 uM), 94.5 nM under setting [1] and 121 nM (input ligand: none).
The like results for “GUUACAUGAGGAUCACCCAUGUAUGUGUGGGAGUAAGUGUCUUAGGAUAUCUGUUAUUUAAUAUAAGAGAAGGAAGAUUGUUGU [JMF's solution 44] (Eterna round: R96, puzzle: Same State NG 3)” were, in that order, 123 nM, 76.5 nM and 108 nM.
As to “GUUACAUGAGGAUCACCCAUGUAUGUGUGGGAGUAAGUGUCUUAGGAUAUCUGUUAUUUAAUCUAAGAGAAGGAAGAUUGUUGU [JMF's solution 45] (Eterna round: R96, puzzle: Same State NG 3)”, the “apparent KD of MS2 coat protein” value is, setting by setting: (input ligand: FMN 200 uM) 113 nM; under setting [1], 66.7 nM; (input ligand: none) 94.1 nM.
For “GUUACAUGAGGAUCACCCAUGUAUGUGUGGGAGUAAGUGUCUUAGGAUAUCUGUUAUUUAAUUUCAGAGAAGGAAGAUUGUUGU [JMF's solution 48] (Eterna round: R96, puzzle: Same State NG 3)”, the “apparent KD of MS2 coat protein” value is 125 nM (input ligand: FMN 200 uM), 91.2 nM under setting [1] and 105 nM (input ligand: none).
